The record followed here is the domain aggregation screens of Martell et al. (2025).

A short description of this data set: soluble fraction after stress (log2 fold change); higher = more stays soluble; pooled small domains, quantitative proteomics. To be noted: stress: 75 degC.
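Note: 20 min heating vs room temperature control held 20 min.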

Regarding “HMTQSGLTQWEFNMLRQALIEMLGEKPGSVFELARLLPLEQEKNVQALRFLLDHDDQFHLKDEYISFVKRT”, the “soluble fraction (log2)” value is -2.34.

Regarding “HMTQTAVFSKGEQEYYFPLSKVLFFETDGNTINVHTADDIYETRYRLYELEEMLPGSFMRISKSAVVNTNR”, the “soluble fraction (log2)” value was determined as 0.00772.

Regarding “HMTRAEVQALLEKQAKDFEVEVVHRGWKKTVQTPEFAGWYSQQPAEIKALAESDDPAVAIRMLDLFSGTK”, the “soluble fraction (log2)” value is -0.0943.

With “HMTRETTQAWWEARQTLPSGEQRSAASLSQEASHVRRFYRWAMQQGLTDRNPADWLPDVRQK”, the “soluble fraction (log2)” value is -0.603.

“HMTRIHEEVVNQVHDLVKEGRFKAGDQLPSERELAEIFKVSRTSVREALRALETQGLIISRTGMGNFIAD”: the “soluble fraction (log2)” value was -0.249.

Turning to “HMTRILTEDDIVNFLIRQPDTAYIIAKSFNENERKVKELLDLLIKKNKVREEIVNGVVSYAVN”, the “soluble fraction (log2)” value was -0.229.

Take “HMTRKQTIYEFLRRMKSQHGLDAVYSTEEIANAVGVSRANVSSDLNRLFEEQLVEKLPGWPVKYRA”: the “soluble fraction (log2)” value is -0.344.

For “HMTRNEFMTALRKRLSHLPAEEQDAALKYYEEYFDEAESEEEAARQLGSPDAIADRILADYGAG”, the “soluble fraction (log2)” value came out at 0.327.

Consider “HMTRPLVILEDVKFPSYNEIVSLTLPDGTRRGGQVLEVSGNKAIVQVFEGTSGIDVKDTHIELTKSS”, for which the “soluble fraction (log2)” value is 0.237.

“HMTRQEFIRKLQEALNGKLDAATIQDHLKFYDDYIIEEMRKGKSEQEVLELLGDPWAIAKTIVDAS”: the “soluble fraction (log2)” value is 0.669.

With “HMTRQKEAILALLTDSRGEALSASELLARLTRSGSSIGRTTVYRLLSQLVDDGVVRAWRDASRGITLYELS”, the “soluble fraction (log2)” value is -1.1.

Consider “HMTRQPSAKEHAVLTAVKEGLRRDGRAPTVRALADMTGAASTSTVQRRISALIDLGLLRRTDGTLEVVE”, for which the “soluble fraction (log2)” value came to 0.0806.

On to “HMTRRVIRAPAAGIMRSNVKLGDLVKEGDVIAWIGEHEIKAPLTGMVRGLLNDGLAVVGGFKIGDI”, for which the “soluble fraction (log2)” value was 0.286.

Take “HMTSEPFYNPRRPQPYWTSETDRHTTYADAVRALAREFSETPEWVESNMGETNDLQEIRRNLSRVKSG”: the “soluble fraction (log2)” value is 0.125.

“HMTSESWAEKSRSLAAAGLIVMGRDAQLKIEGLTNLDPLIEAATASSTRLLTGQTIDELLTIVP”: the “soluble fraction (log2)” value is -0.551.

Turning to “HMTSEVLTNATIVKMVKAKLSDDIIIDEINNARVNFDVSPEGIKSLTAQNVTEPVIETMKKAVAAQESI”, the “soluble fraction (log2)” value came out at 0.467.

Regarding “HMTSFDVMLKSAGANKLAVVKLVKELTGLGLKEAKDIVDAAPSKVKEGVSKEEAEELQKQLTGAGAEVEL”, the “soluble fraction (log2)” value is -0.113.

Consider “HMTSHYTVLGVKETDTIEMIRTHYRKLILQFHPDKNQHLTEEERKKLEVKVLQIREAYEKIKKEK”, for which the “soluble fraction (log2)” value was -0.433.

As to “HMTSIISLAKARSIALQKVPGATSKNIHLSLDDEDDKQVYEGEIKYKQMEYVFEIDAKTGTFLKWTSERD”, the “soluble fraction (log2)” value is -1.92.

Take “HMTSKTLSAVEGEGLRLDKFLSNQLPELSRTKIQKMINDGLVFVNNTEAKASLILDGSEFIAYTVPD”: the “soluble fraction (log2)” value is -0.243.

“HMTSLAEQAYRHIRDKLSNGAFVPGEQLVNRVLATEIGVSVIPVREAINRLATEGLVKHVPGSGAFVRQ”: the “soluble fraction (log2)” value is -0.0622.

As for “HMTSLYDILGIAKTADSQTIKTAFKKKALLYHPDKNNGNLKKEEIFKKISTAYQILSDPKSRANYDLSIA”, the “soluble fraction (log2)” value was -0.272.

As for “HMTSMNNTEELIDMANKIIDNNPNMVLKYKEGRNVLDFFIGQVMKETKGRANPSATSKIFKDLLEK”, the “soluble fraction (log2)” value is -0.0827.

Consider “HMTSNKTVPYSELKGLISTGKIEYVGIGNTQIRAVSKSGAGIVTYTARRVIPDDTLIPELEKNGIAYGGI”, for which the “soluble fraction (log2)” value was -0.838.

Consider “HMTSNSLNLKDEISAFLTKNAGISYSAERIAHALNMDNADQFTPIIQTLAQLEREKKVRVTDKGEFEAVIK”, for which the “soluble fraction (log2)” value worked out at 0.02.

Take “HMTSSKISFIDPVNGGKVSVSLENSTLEKLQNRFGVNSVVRNEAGDVELKDKAQEFVAGWFADIAYTRG”: the “soluble fraction (log2)” value was -0.0154.

“HMTTAGTAIVQTGNSGKLNLREQAYANAGILGRYSNGTAVTVLQKGAAWSYVEVKGQKGYMMSKFLKFTS”: the “soluble fraction (log2)” value is -1.53.

For “HMTTEIVRMKKDVKIGQEITAKDIEVVEVGAYNLPDEVIRSSEEVVGKYVSSELLKGEYVLPSKISDTP”, the “soluble fraction (log2)” value turned out to be 0.22.

“HMTTEPYILTRMPDGSIKAEPNLNYKGPEQKPGSNIQVKGADGRIYLVPIDGQGKPGKPQLVD”: the “soluble fraction (log2)” value was determined as 0.0898.

As to “HMTTGLETYPGKIAVVSDDFIDGEGRVQLDGALWRAKTKDHQQLKQGDHVTIVNVKGLTLTVMPDD”, the “soluble fraction (log2)” value came to 0.716.

As to “HMTTGREGLIGAVGTVRQAIAPEGYVFVEGELWRAKSPAGPLEPGTTVRVIAIDGLTLTVMPAE”, the “soluble fraction (log2)” value was -0.965.

In the case of “HMTTGTVKWFNDAKGFGFITPDDRSVDVFVHYSNIVGQSGRRTLMEGERVEYEAIEGPKGPQATDVARA”, the “soluble fraction (log2)” value is -0.223.

As for “HMTTIFDNINGELRRRHLTQQDLAKTIEIDRRTWSKWQDKNDMPASVLLQIAKWLNVTLDYLTRD”, the “soluble fraction (log2)” value was -2.57.

Take “HMTTIKLTQEDVEKIKSLPKRTFLIGNLQQTGLYDEKTRRFYYLDANGEWNGRLAIINTPPPPPPPP”: the “soluble fraction (log2)” value was found to be 0.0273.

For the sequence “HMTTKYMVLVNWVKEKVRTNELKTGEKLYSEHEFSRMFHMSRQTVRHGISILERENIVERRQGSGTFIKDA”, the “soluble fraction (log2)” value is -2.95.

Regarding “HMTTKYVAVHESKDGYWTIASKPSSKEDAEAMLGGTPKNEVGKVVTLEEAKAHKKTLGEEYLYE”, the “soluble fraction (log2)” value was 0.218.

As for “HMTTMTTGQRIAAKRKEQGLSQENLGEQLGVSRQAIYKWESDASLPDIDKLIALSRLFGVSTDYLLLE”, the “soluble fraction (log2)” value was -0.584.

Take “HMTTQIPEEVQKRVNQFYEALDEEDYGEAKQILEELEKATAPDHPTLIQMRTRYEFDTMELR”: the “soluble fraction (log2)” value was determined as 0.329.

Take “HMTTTPAERQRTILRSLNRVDPVSVDALARLTGVSVVTIRRDLSDLASRDLIRRVHGGALLPTR”: the “soluble fraction (log2)” value was -1.62.

Take “HMTTYSVDLGDIRAVADSDGKLVELTLHAAVTTHYSHSELADRLNLAFTALREEAQADYETRY”: the “soluble fraction (log2)” value worked out at 0.223.

For the sequence “HMTTYTGVVTGSGVNVRSGAGTSYPVVGSKTMGDVVTITETVSADGMIWGKIDIGWISMNYVRM”, the “soluble fraction (log2)” value is -2.75.

For “HMTVAQEIEARRATIRSSDPAEMARFIRWLIMEGHTEPAADELKKYAENFPEASATTKQLQALLAAR”, the “soluble fraction (log2)” value is -0.311.

As for “HMTVDIADALRVLGLSDAPDWSDVRAAHRRAIVRTHPDAGGSAGDAARVNQAFDLLRKISGNGERPIPG”, the “soluble fraction (log2)” value was determined as 0.012.

Turning to “HMTVDTSELEEMIDDLIKEHPNEWERYSSGEKKVQGFFVGQVMKATSGQADGKAINQILSKRVKS”, the “soluble fraction (log2)” value was 0.803.

Take “HMTVDYDKFTKDTVVQHNKFGKGVIIMTSGDGEDKIASIAFQGLGVKRFSLAIAASNLKILGKVNED”: the “soluble fraction (log2)” value was -2.48.

For the sequence “HMTVEVFQSLVQTFREMSPRKAASILEELKRDLAVEILLHMPEDGVAAILARMDPARAARLTEQLALEKD”, the “soluble fraction (log2)” value is -1.86.

As for “HMTVGEAHLEEVYLKVLKQVEEQGTALIRTTDVETGRPAAGIRRRYMRGTLPDEWVAKFEALPGWTWAPG”, the “soluble fraction (log2)” value is -3.04.

Consider “HMTVGEKIQKYRKDLDLSQEELGQKLLVSRQTISLWEKDQTVPTIDNLIRLREIFGVSVDEILGF”, for which the “soluble fraction (log2)” value is -0.818.

On to “HMTVIARQIPPLVPRMLDGLEAFIKLDVPFEEKERLARVQMLRSSLDRDNLDTAEIFRAVLEAYNIELQY”, for which the “soluble fraction (log2)” value was found to be 0.352.

Take “HMTVKKEIAKVKPTPLGWLRVRETPSLNGAEITKVNTGESYDVLDKETGWIKIKVSETVEGWVSDAYIELS”: the “soluble fraction (log2)” value is -0.319.

Regarding “HMTVLPTENDAKALVGLNEDEAVKIIEGNGWTYRIGSRDGEQFMLTEDYSTSRLTLGIEKSIVVTATI”, the “soluble fraction (log2)” value was -0.543.

Regarding “HMTVLVPNLTGKTLLEAEILLDQAGLKKGDVYSESNKNVPKDHIIRQKPAPNTKIQKGATIDIYRSLGPE”, the “soluble fraction (log2)” value was -0.0471.

On to “HMTVNLPPKQKAAILLMSLPPEVSAQLFKELGPDEVHAITLEISKLPPISPDVRAQVIDEFLHSS”, for which the “soluble fraction (log2)” value is -0.641.

With “HMTVSIGSVIARERRLRGDTQQELAERLGVSKAAVSKWEVGQSIPDVTLLPRIAAYFSLTLDEL”, the “soluble fraction (log2)” value is -2.45.

For the sequence “HMTVVLPGESLTVNIIQEGKELGQGVGYLDDGTMVVIEDGRRYIDQTIEVTVTRVLQTVAGRMIFAQLT”, the “soluble fraction (log2)” value is -4.46.

As to “HMTWDSFIGYTVTDVQKGYLGEITDVDETTINVLLRVDHKGEELLIPAVEELITEADHEARSLTVSLPEGL”, the “soluble fraction (log2)” value was -0.398.

On to “HMTYFIADLIGLQVYTDSGELLGKVDDIYNSGSADIYVVKDELGKQILLPGIKDVIKQIDVDNEKIIVHLI”, for which the “soluble fraction (log2)” value was -1.24.

With “HMTYIQSNLKFLRNKMNISQEELAKRLFVTHQTVSNHENGKSQPNFEMIEKYASFFNVPFEDLIHKDLSL”, the “soluble fraction (log2)” value was -0.68.

Consider “HMTYNIPEHYQTIDVKEYVRKLVSDGDSDQIGRVEMELTEFETRNLFPVLKVLIYIIDTMRK”, for which the “soluble fraction (log2)” value is -3.

As for “HMTYQTVRYGSTGSAVRQLQSALNQKGYQLSEDGIFGAKTRAAVRDYQKKNGLLLDGIAGSQTWNHLMS”, the “soluble fraction (log2)” value was -0.179.

Take “HMTYSSESVRYRIKSLIDNETIDEILSDDKIVNILKSQGIDVARRTVAKYREAMGLASSIQRRREKKSA”: the “soluble fraction (log2)” value was -0.707.

In the case of “HMVAGGTVSRKLSIETGLPKRKSLIGSWLDQNSVWHNIISVRHRNGYGDGVNYGFYLRSLLTSEGNLAW”, the “soluble fraction (log2)” value was -0.0583.

As for “HMVAGHLQTKKGYYYIVLNMRTDTGARKTKWIATGIPEGGKKNLKQAEELLAKTRYTYEDMVI”, the “soluble fraction (log2)” value is -2.52.

In the case of “HMVAPKTEEQQKMFLESIVTKRQAETLIEKYPNIVQDIIDGTDNVDLANLKGIGEHTYNLIKEKVLSNY”, the “soluble fraction (log2)” value stood at 0.546.

On to “HMVAPPILNITTHIFAEEADLRMVMINGVTRREGDSLGENHRLLEITERGLILIFHNKQYTLDV”, for which the “soluble fraction (log2)” value was -4.32.

For the sequence “HMVAQEVPYSTFVMRLDRNEVDAVKIIDGNEIEGTFKSPNGDLVQFKTLIPYQDTELMPLLKQKGVRISGS”, the “soluble fraction (log2)” value was found to be 0.427.

As to “HMVARPVLQIGSTGADVTAIQARLGVSQTGYFGVLTAAAVTNFQRSNGIAASGKVGATTWAKLMQSA”, the “soluble fraction (log2)” value is -2.37.

With “HMVAVSQEEATKMALERVSGASAQDIRIQLEFDDGIQKYEGDIIYNGREYEFEIDANTGTFLEWSEERA”, the “soluble fraction (log2)” value is -0.176.

Regarding “HMVDETDVPTFTDMTLEEAQNEAKQRNLKLEITESPSDKEKDTILEQDPEPGKTVASGSTVKLTVSNGEE”, the “soluble fraction (log2)” value was -0.157.

With “HMVDFHAAYSILRIAPGASWQEIQAAYEKLNDAWREDRYPQVPFWNEKAAFKRREVEQAYEKLRKFHALRH”, the “soluble fraction (log2)” value is -2.43.
